The target of data set [1] is T1, MsaB-His (MsaBhis) (Staphylococcus aureus USA300 LAC) (UniProt Q2FH36).
T1 sequence: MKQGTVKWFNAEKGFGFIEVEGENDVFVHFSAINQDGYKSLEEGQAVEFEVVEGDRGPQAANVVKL
Briefly: EMSA.

For data set [2], the target named is T1, MsaB-His (MsaBhis) (Staphylococcus aureus USA300 LAC). The data set is described as follows: competition.
The target in data set [3] is T2, MsaB-His (MsaBhis) (Staphylococcus aureus USA300 LAC, UniProt Q2FH36 1-66).
T2 sequence: T1 sequence
Briefly: EMSA; 5 mM MgCl2, poly(dI-dC). As to conditions: protein: recombinant; tags: C-terminal 6xHis; label: 5'-biotin.

As to “TCCACTAACATCATCCTAACTATTTCAACACGTTTATTTCATTATACACAACTTCTTAAACATTCAATAAATTTAGATTTATAAAATTGCTTTATAAAAAGTTTTATGTAAAATACACATTCTTTTATGGTATTATATTAATGGCTCAAGT (double strand) [PcidR promoter probe]”, the binding result in data set [1] is on record as “binds”. Take “TCCACTAACATCATCCTAACTATTTCAACACGTTTATTTCATTATACACAACTTCTTAAACATTCAATAAATTTAGATTTATAAAATTGCTTTATAAAAAGTTTTATGTAAAATACACATTCTTTTATGGTATTATATTAATGGCTCAAGT (double strand) [PcidR promoter unlabeled competitor]”: the binding result in data set [2] is “binds”.

B1: PcidABC-EMSA (dsDNA)
DNA 1: AGTGAAATTTAGAGAGCGTTTCCATAGAAAATAGTAATACAAACCATAAAAAAAGAGTAT
DNA 2: ATACTCTTTTTTTATGGTTTGTATTACTATTTTCTATGGAAACGCTCTCTAAATTTCACT
On to B1, for which the binding result in data set [3] was “no binding”.

B2: PalsSD-EMSA (dsDNA)
DNA 1: B1 DNA 2
DNA 2: B1 DNA 1
Regarding B2, the binding result in data set [3] is given as “no binding”.

Values taken from article PMC9204165, “Delineating the Role of the msaABCR Operon in Staphylococcal Overflow Metabolism”.
